This note sets out measurements from the supplement of paper PMC7125110.

Broadly, the kcat is the number of substrate molecules converted per active site and unit of time at saturation. In general, KM refers to the concentration of substrate that gives half-maximal velocity.

± gives the standard error. For part of these data: Fewer inactive variants are shown than the library holds. Bounds are passed on as bounds.

The chains are these.
B1: glmS ribozyme (parent)
chain: AUAAAAGCGCCAGAACUACAGAAAUGUAGUUGACGAGGAGGAGGUUUAUCGAAUUUUCGGCGGAUGCCUCCAAA

Common to all, as to settings: with glucosamine-6-phosphate
The variants in data set [1] derive from B1. Description: self-cleavage kobs at 40 uM GlcN6P; higher = faster cleavage; RNA array. The method, boiled down: (§1)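 kcat and KM were obtained from weighted Michaelis–Menten fits across concentrations of kobs values. Those came from one- or two-exponential decay fits to per-tile medians normalised to baseline and to non-cleaving reference variants. The variants were barcoded ribozymes transcribed in situ by E. coli RNA polymerase on sequenced MiSeq chips and tracked through a hybridised Cy3 probe at 37 °C, with 40 μM to 10 mM glucosamine-6-phosphate in HEPES/KCl/Mg(OAc)2 buffer flowed in.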

Variants of B1 are the subject of data set [2]. Description: self-cleavage kobs at 10000 uM GlcN6P; higher = faster cleavage; RNA array. The method, boiled down: as §1
The variants in data set [3] derive from B1. Kind of data set: self-cleavage kobs at 2500 uM GlcN6P; higher = faster cleavage; RNA array. The method, boiled down: as §1
In data set [4] the parent is B1. Description: self-cleavage kobs at 160 uM GlcN6P; higher = faster cleavage; RNA array. The gist of the method: as §1
In data set [5] the parent is B1. Description: self-cleavage kobs at 640 uM GlcN6P; higher = faster cleavage; RNA array. The gist of the method: as §1
In data set [6] the parent is B1. Description: kcat; higher = faster cleavage; RNA array. The method, boiled down: as §1
Variants of B1 are the subject of data set [7]. Kind of data set: KM; higher = weaker cofactor use; RNA array. The gist of the method:
as §1

As for A48G C50G C61G, the “self-cleavage kobs at 40 uM GlcN6P” value with glucosamine-6-phosphate [1] is 0.000172 ± 6.6e-05 s⁻¹. Besides, in the data set with glucosamine-6-phosphate [2], the “self-cleavage kobs at 10000 uM GlcN6P” value came to 0.000127 ± 3.7e-05 s⁻¹.
For C10A C11U A33C U49G C67G, in the data set with glucosamine-6-phosphate [1], the “self-cleavage kobs at 40 uM GlcN6P” value is < 1e-05 s⁻¹. Moreover, in the data set with glucosamine-6-phosphate [3], the “self-cleavage kobs at 2500 uM GlcN6P” value was < 1e-05 s⁻¹.
As to C34U U55C, the “self-cleavage kobs at 40 uM GlcN6P” value with glucosamine-6-phosphate [1] is < 1e-05 s⁻¹. In the data set with glucosamine-6-phosphate [4], the “self-cleavage kobs at 160 uM GlcN6P” value was < 1e-05 s⁻¹. The “self-cleavage kobs at 640 uM GlcN6P” value with glucosamine-6-phosphate [5] is < 1e-05 s⁻¹. Further, the “self-cleavage kobs at 2500 uM GlcN6P” value with glucosamine-6-phosphate [3] was < 1e-05 s⁻¹. Further, in the data set with glucosamine-6-phosphate [2], the “self-cleavage kobs at 10000 uM GlcN6P” value was < 1e-05 s⁻¹.
As for G37C G41U U46C, the “self-cleavage kobs at 40 uM GlcN6P” value with glucosamine-6-phosphate [1] is < 1e-05 s⁻¹. Besides, the “self-cleavage kobs at 10000 uM GlcN6P” value in the data set with glucosamine-6-phosphate [2] was < 1e-05 s⁻¹.
On to A48U C50G C67U, for which, in the data set with glucosamine-6-phosphate [1], the “self-cleavage kobs at 40 uM GlcN6P” value came out at 0.000126 ± 4.4e-05 s⁻¹.
Regarding C34U G41A C68A, the “self-cleavage kobs at 40 uM GlcN6P” value with glucosamine-6-phosphate [1] is < 1e-05 s⁻¹. Further, in the data set with glucosamine-6-phosphate [2], the “self-cleavage kobs at 10000 uM GlcN6P” value is < 1e-05 s⁻¹.
Take A12U U31C: the kcat in the data set with glucosamine-6-phosphate [6] was determined as 0.011 ± 0.0038 s⁻¹. Moreover, the Michaelis-Menten constant (KM) with glucosamine-6-phosphate [7] was 2070 ± 880 µM. In addition, the “self-cleavage kobs at 40 uM GlcN6P” value in the data set with glucosamine-6-phosphate [1] was 0.000254 ± 4.3e-05 s⁻¹. Moreover, the “self-cleavage kobs at 160 uM GlcN6P” value with glucosamine-6-phosphate [4] turned out to be 0.000727 ± 0.00017 s⁻¹. Moreover, the “self-cleavage kobs at 640 uM GlcN6P” value with glucosamine-6-phosphate [5] was determined as 0.00178 ± 0.00062 s⁻¹. In addition, the “self-cleavage kobs at 10000 uM GlcN6P” value with glucosamine-6-phosphate [2] was determined as 0.0101 ± 0.0026 s⁻¹.
For A42C G51C, the “self-cleavage kobs at 40 uM GlcN6P” value in the data set with glucosamine-6-phosphate [1] is < 1e-05 s⁻¹. For the same variant, the “self-cleavage kobs at 160 uM GlcN6P” value with glucosamine-6-phosphate [4] is < 1e-05 s⁻¹. In addition, the “self-cleavage kobs at 640 uM GlcN6P” value in the data set with glucosamine-6-phosphate [5] is < 1e-05 s⁻¹. For the same variant, the “self-cleavage kobs at 10000 uM GlcN6P” value with glucosamine-6-phosphate [2] is < 1e-05 s⁻¹.
Turning to U30G U47C C70G, the “self-cleavage kobs at 40 uM GlcN6P” value with glucosamine-6-phosphate [1] is < 1e-05 s⁻¹. Also, the “self-cleavage kobs at 640 uM GlcN6P” value with glucosamine-6-phosphate [5] was 5.55e-05 ± 2e-05 s⁻¹. Also, the “self-cleavage kobs at 2500 uM GlcN6P” value with glucosamine-6-phosphate [3] was found to be 0.000116 ± 2.6e-05 s⁻¹. In addition, the “self-cleavage kobs at 10000 uM GlcN6P” value in the data set with glucosamine-6-phosphate [2] was determined as 7.72e-05 ± 2.2e-05 s⁻¹.
As to A12G G62A, the “self-cleavage kobs at 40 uM GlcN6P” value with glucosamine-6-phosphate [1] was < 1e-05 s⁻¹. Besides, the “self-cleavage kobs at 640 uM GlcN6P” value in the data set with glucosamine-6-phosphate [5] was < 1e-05 s⁻¹. Further, the “self-cleavage kobs at 10000 uM GlcN6P” value with glucosamine-6-phosphate [2] was < 1e-05 s⁻¹.
Turning to A33U U46A, the “self-cleavage kobs at 40 uM GlcN6P” value with glucosamine-6-phosphate [1] is < 1e-05 s⁻¹. For the same variant, the “self-cleavage kobs at 160 uM GlcN6P” value with glucosamine-6-phosphate [4] was < 1e-05 s⁻¹. In addition, in the data set with glucosamine-6-phosphate [5], the “self-cleavage kobs at 640 uM GlcN6P” value is < 1e-05 s⁻¹.
On to A42U G51C, for which the “self-cleavage kobs at 40 uM GlcN6P” value with glucosamine-6-phosphate [1] is < 1e-05 s⁻¹. For the same variant, the “self-cleavage kobs at 160 uM GlcN6P” value in the data set with glucosamine-6-phosphate [4] was < 1e-05 s⁻¹. For the same variant, in the data set with glucosamine-6-phosphate [5], the “self-cleavage kobs at 640 uM GlcN6P” value was < 1e-05 s⁻¹.
For the variant U31G G43C, the “self-cleavage kobs at 40 uM GlcN6P” value with glucosamine-6-phosphate [1] was < 1e-05 s⁻¹. For the same variant, the “self-cleavage kobs at 160 uM GlcN6P” value with glucosamine-6-phosphate [4] was < 1e-05 s⁻¹. The “self-cleavage kobs at 640 uM GlcN6P” value with glucosamine-6-phosphate [5] is < 1e-05 s⁻¹. Moreover, in the data set with glucosamine-6-phosphate [3], the “self-cleavage kobs at 2500 uM GlcN6P” value is < 1e-05 s⁻¹.
As to C11G A39U C50G, the “self-cleavage kobs at 40 uM GlcN6P” value with glucosamine-6-phosphate [1] is < 1e-05 s⁻¹. In addition, the “self-cleavage kobs at 160 uM GlcN6P” value with glucosamine-6-phosphate [4] was < 1e-05 s⁻¹. For the same variant, the “self-cleavage kobs at 640 uM GlcN6P” value in the data set with glucosamine-6-phosphate [5] is < 1e-05 s⁻¹. Further, the “self-cleavage kobs at 2500 uM GlcN6P” value in the data set with glucosamine-6-phosphate [3] is < 1e-05 s⁻¹. Besides, in the data set with glucosamine-6-phosphate [2], the “self-cleavage kobs at 10000 uM GlcN6P” value was < 1e-05 s⁻¹.
On to U31G U45G C61A, for which the “self-cleavage kobs at 40 uM GlcN6P” value with glucosamine-6-phosphate [1] is < 1e-05 s⁻¹. The “self-cleavage kobs at 2500 uM GlcN6P” value with glucosamine-6-phosphate [3] is < 1e-05 s⁻¹. The “self-cleavage kobs at 10000 uM GlcN6P” value in the data set with glucosamine-6-phosphate [2] is < 1e-05 s⁻¹.
A33U C50G C71G: the “self-cleavage kobs at 40 uM GlcN6P” value with glucosamine-6-phosphate [1] worked out at 0.000128 ± 2.3e-05 s⁻¹. Further, in the data set with glucosamine-6-phosphate [2], the “self-cleavage kobs at 10000 uM GlcN6P” value stood at 0.0002 ± 4.2e-05 s⁻¹.
For U45G A64U, the “self-cleavage kobs at 40 uM GlcN6P” value with glucosamine-6-phosphate [1] is < 1e-05 s⁻¹. In addition, the “self-cleavage kobs at 160 uM GlcN6P” value in the data set with glucosamine-6-phosphate [4] was < 1e-05 s⁻¹. Further, the “self-cleavage kobs at 10000 uM GlcN6P” value with glucosamine-6-phosphate [2] is 9.64e-05 ± 1.8e-05 s⁻¹.
For C34G U45A, the “self-cleavage kobs at 40 uM GlcN6P” value with glucosamine-6-phosphate [1] was < 1e-05 s⁻¹. Besides, in the data set with glucosamine-6-phosphate [4], the “self-cleavage kobs at 160 uM GlcN6P” value is < 1e-05 s⁻¹. Further, in the data set with glucosamine-6-phosphate [5], the “self-cleavage kobs at 640 uM GlcN6P” value was < 1e-05 s⁻¹. For the same variant, the “self-cleavage kobs at 2500 uM GlcN6P” value in the data set with glucosamine-6-phosphate [3] is < 1e-05 s⁻¹. Besides, the “self-cleavage kobs at 10000 uM GlcN6P” value in the data set with glucosamine-6-phosphate [2] was < 1e-05 s⁻¹.
With U56C U69C C70A, the “self-cleavage kobs at 40 uM GlcN6P” value with glucosamine-6-phosphate [1] is < 1e-05 s⁻¹. Besides, in the data set with glucosamine-6-phosphate [4], the “self-cleavage kobs at 160 uM GlcN6P” value is < 1e-05 s⁻¹. In addition, the “self-cleavage kobs at 640 uM GlcN6P” value with glucosamine-6-phosphate [5] is < 1e-05 s⁻¹. Moreover, the “self-cleavage kobs at 2500 uM GlcN6P” value in the data set with glucosamine-6-phosphate [3] is < 1e-05 s⁻¹. Moreover, the “self-cleavage kobs at 10000 uM GlcN6P” value with glucosamine-6-phosphate [2] was < 1e-05 s⁻¹.
For G38U U45G, the “self-cleavage kobs at 40 uM GlcN6P” value with glucosamine-6-phosphate [1] is < 1e-05 s⁻¹. Moreover, the “self-cleavage kobs at 640 uM GlcN6P” value with glucosamine-6-phosphate [5] was < 1e-05 s⁻¹.
